Measured values: US7220576B2, “Methods and compositions for protein expression and purification” (Lifesensors, Inc., priority 2002, dated 2007)
“Also recorded” adds a separate entry of the source.

Columns and labels:
E. coli [1] = assay: GFP fluorescence in soluble fractions of E. coli; type: cell-based; details: 37° C., approx. 0.1 mg soluble protein, Ex 485 nm/Em 510 nm
Protocol: GFP fluorescence was measured in soluble fractions (approx. 0.1 mg of soluble protein in a final volume of 40 μl) using Fluoroscan Accent FL fluorometer (LabSystems) with Excitation 485 nm/Emission 510 nm filter set with the exposure set to 40 sec. The data are presented in Arbitrary Units (AU).
The design and construction of all the UBL E. coli expression vectors has been described above. The DNA sequences, accession numbers of the UBL-GFP fusion proteins, and translation frames are shown FIGS. 25–32. […] Un-fused GFP is generally poorly expressed in E. coli. […] Induced cells were broken by sonication and soluble proteins were analyzed on SDS-polyacrylamide gels. […] To determine if the fusion proteins were folded correctly, we determined the fluorescence properties of proteins in the soluble fraction.

E. coli [2] = assay: Soluble versus insoluble fraction of fusion proteins expressed in E. coli; type: cell-based
Protocol: E. coli were harvested by mild centrifugation and washed once with PBS buffer. Cells were resuspended in 4 ml of PBS and ruptured by several pulses of sonication. Unbroken cells were removed by mild centrifugation (5 min at 1500×g) and supernatants were sonicated again to ensure complete cell lysis. An aliquot (5 μl) was mixed with 2% SDS to ensure that no viscosity is detected owing to lysis of unbroken cells. After ensuring that no unbroken cells remained in the lysate, insoluble material consisting of cell walls, inclusion bodies and membrane fragments was sedimented by centrifugation (18,000×g for 10 min). The supernatant was considered “Soluble fraction”.
The pellets were washed from any remaining soluble proteins, lipids and peptidoglycan as follows. Pellets were resuspended in 600 μl of PBS and to the suspensions 600 μl of solution containing 3 M urea and 1% Tri ton X100 was added. The suspension was briefly vortexed and insoluble material was collected by centrifugation as above. The PBS/Urea/Triton wash was repeated two more times to ensure complete removal of soluble proteins. The washed pellets, designated as “insoluble fraction,” consisted primarily of inclusion bodies formed by over expressed proteins. Approximately 10 μg of protein from each fraction was resolved on 12% SDS-PAGE minigels and stained with Coomassie Brilliant Blue.
Human nuclear receptor proteins, such as steroid receptors, contain ligand-binding domains. These proteins have proven hard to express in soluble form in E. coli. […] The ligand-binding domain of LXR was expressed as SUMO fusion in Rosetta plysS cell at 20° C. or 37° C. and the pattern of soluble and insoluble protein was analyzed. […] Further proof that SUMO promotes solubility of previously insoluble proteins was gained by expressing MAPKAP2 kinase as a SUMO-fusion in E. coli. […] Numbers at the top of the gel, 0.1, 0.25 and 0.5 refer to the mM concentration of inducer IPTG, in the culture. The original induced culture (I), supernatant from lysed cells (S) and resuspended pellet (P) were analyzed on 12% SDS-PAGE. […] Although induction at 37° C. allows greater degree of expression, more than 50% of the kinase is still insoluble under these conditions. Cleavage of SUMO-MAPKKAP2 kinase by SUMO hydrolase is described in Example III. Also see FIG. 18.

Ulp1 Hydrolase = target: T1, Ulp1 Hydrolase (Saccharomyces cerevisiae, UniProt Q02724); assay: In vitro Ulp1 cleavage of His6SUMO-GFP under various additives/conditions; type: biochemical, yeast; details: 4 to 37° C.
T1 construct: C-terminal His-tagged SUMO hydrolase/protease Ulp (403–621)p (21) (27) was expressed from pET24d; His tag (C); made in house; host or cells: E. coli Rosetta (DE3) pLysS, vector pET24d
T1 sequence (Q02724 403-621): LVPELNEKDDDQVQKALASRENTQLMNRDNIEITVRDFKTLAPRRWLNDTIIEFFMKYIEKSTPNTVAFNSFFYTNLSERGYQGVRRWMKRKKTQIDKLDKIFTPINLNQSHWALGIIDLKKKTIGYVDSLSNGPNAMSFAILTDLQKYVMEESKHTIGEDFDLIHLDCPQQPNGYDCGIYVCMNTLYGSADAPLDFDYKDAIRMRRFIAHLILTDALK
Protocol: Ni-NTA purified His6SUMO-GFP was incubated with Ulp1 under the indicated conditions for one hour at room temperature unless indicated otherwise. Low molecular weight markers (LMW) are also provided.
Ni-NTA purified His6SUMO-GFP was incubated with Ulp1 and 10 mM of various protease inhibitors for 1 hour at room temperature. Lane markers: Norm is addition of Ulp1 and N-ethymaleimide (NEM) to the substrate at the same time, Pre is the incubation of Ulp1 with NEM prior to the addition of substrate, +Ve is the absence of any inhibitor, −Ve is in the absence of Ulp1, lane 1 is with E-64, lane 2 is with EDTA, lane 3 is with leupeptin, lane 4 is with NEM, lane 5 is with pepstatin, lane 6 is with TLCK. Low molecular weight markers (LMW) are also provided.
The effects of various additives/conditions and temperature upon the in vitro cleavage reaction were determined as follows: His6smt3MeGFP was expressed from pET24d in Rosetta (DE3) pLysS (Novagen). The recombinant protein was purified as before using Ni-NTA agarose (Qiagen) and then buffer exchanged into 20 mM Tris-HCl pH 8.0, 150 mM NaCl and 5 mM β-mercaptoethanol using a PD-10 column (AP Biotech). […]

SUMO hydrolase Ulp1 = target: T2, SUMO hydrolase Ulp1 (Saccharomyces cerevisiae, UniProt Q02724); assay: In vitro cleavage of purified SUMO fusion proteins by SUMO hydrolase Ulp1; type: biochemical, yeast; details: for In vitro cleavage by Ulp1 / SUMO hydrolase: purified fusion protein from E. coli
T2 construct: C-terminal His-tagged SUMO hydrolase/protease Ulp (403–621)p (21) (27) was expressed from pET24d; His tag (C); made in house; host or cells: E. coli Rosetta (DE3) pLysS, vector pET24d
T2 sequence (Q02724 403-621): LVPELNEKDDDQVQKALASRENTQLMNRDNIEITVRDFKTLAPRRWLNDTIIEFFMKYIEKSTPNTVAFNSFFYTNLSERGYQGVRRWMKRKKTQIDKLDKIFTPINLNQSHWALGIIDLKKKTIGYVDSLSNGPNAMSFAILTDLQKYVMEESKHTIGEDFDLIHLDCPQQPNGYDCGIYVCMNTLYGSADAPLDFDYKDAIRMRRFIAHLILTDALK

B1: Hub1-GFP (protein)
chain: MGHHHHHHGSDSEVNQEAKPEVKPEVKPETHINLKVSDGSSEIFFKIKKTTPLRRLMEAFAKRQGKEMDSLRFLYDGIRIQADQAPEDLDMEDNDIIEAHREQIGG
GFP fluorescence of soluble fraction (correct folding) (E. coli [1]): able to fluoresce
Solubility of UBL-GFP fusion (soluble panel of stained gel) (E. coli [2]; 37° C., FIG. 4A): able to solublize the GFP

B2: Ulp1: C-terminal His-tagged yeast SUMO hydrolase/protease Ulp (403–621) expressed in E. coli (protein, UniProt Q02724 403-621, looked up, fragment)
chain: LVPELNEKDDDQVQKALASRENTQLMNRDNIEITVRDFKTLAPRRWLNDTIIEFFMKYIEKSTPNTVAFNSFFYTNLSERGYQGVRRWMKRKKTQIDKLDKIFTPINLNQSHWALGIIDLKKKTIGYVDSLSNGPNAMSFAILTDLQKYVMEESKHTIGEDFDLIHLDCPQQPNGYDCGIYVCMNTLYGSADAPLDFDYKDAIRMRRFIAHLILTDALK
modifications: C-terminal His tag
notes: C-terminal His-tagged yeast SUMO hydrolase/protease Ulp (403–621) expressed in E. coli
Effect of temperature on Ulp1 hydrolase activity (Ulp1 Hydrolase): extremely active at 37 °C as well as at 4 °C; also recorded: Ulp1 is active over a broad range of temperatures,

B3: β-GUS: SUMO fusion of 65 KDa E. coli β-glucuronidase (SEQ ID NO: 23) (protein)
chain: MGHHHHHHGSDSEVNQEAKPEVKPEVKPETHINLKVSDGSSEIFFKIKKTTPLRRLMEAFAKRQGKEMDSLRFLYDGIRIQADQTPEDLDMEDNDIIEAHREQIGGMEFMLRPVETPTREIKKLDGLWAFSLDRENCGIDQRWWESALQESRAIAVPGSFNDQFADADIRNYAGNVWYQREVFIPKGWAGQRIVLRFDAVTHYGKVWVNNQEVMEHQGGYTPFEADVTPYVIAGKSVRITVCVNNELNWQTIPPGMVITDENGKKKQSYFHDFFNYAGIHRSVMLYTTPNTWVDDITVVTHVAQDCNHASVDWQVVANGDVSVELRDADQQVVATGQGTSGTLQVVNPHLWQPGEGYLYELCVTAKSQTECDIYPLRVGIRSVAVKGQQFLINHKPFYFTGFGRHEDADLRGKGFDNVLMVHDHALMDWIGANSYRTSHYPYAEEMLDWADEHGIVVIDETAAVGFNLSLGIGFEAGNKPKELYSEEAVNGETQQAHLQAIKELIARDKNHPSVVMWSIANEPDTRPQVHGNISPLAEATRKLDPTRPITCVNVMFCDAHTDTISDLFDVLCLNRYYGWYVQSGDLETAEKVLEKELLAWQEKLHQPIIITEYGVDTLAGLHSMYTDMWSEEYQCAWLDMYHRVFDRVSAVVGEQVWNFADFATSQGILRVGGNKKGIFTRDRKPKSAAFLLQKRWTGMNFGEKPQQGGKQ
In vitro cleavage by SUMO hydrolase after addition of urea (SUMO hydrolase Ulp1; 2M urea, 20 min at room temperature): complete cleavage
In vitro cleavage by Ulp1 / SUMO hydrolase (SUMO hydrolase Ulp1): partially resistant to cleavage

B4: SUMO-LXR: human liver X receptor ligand binding domain as SUMO fusion (SEQ ID NO: 25) (protein)
chain: MGHHHHHHGSDSEVNQEAKPEVKPEVKPETHINLKVSDGSSEIFFKIKKTTPLRRLMEAFAKRQGKEMDSLRFLYDGIRIQADQTPEDLDMEDNDIIEAHREQIGGMSLWLGAPVPDIPPDSAVELWKPGAQDASSQAQGGSSCILREEARMPHSAGGTAGVGLEAAEPTALLTRAEPPSEPTEIRPQKRKKGPAPKMLGNELCSVCGDKASGFHYNVLSCEGCKGFFRRSVIKGAHYICHSGGHCPMDTYMRRKCQECRLRKCRQAGMREECVLSEEQIRLKKLKRQEEEQAHATSLPPRRSSPPQILPQLSPEQLGMIEKLVAAQQQCNRRSFSDRLRVTPWPMAPDPHSREARQQRFAHFTELAIVSVQEIVDFAKQLPGFLQLSREDQIALLKTSAIEVMLLETSRRYNPGSESITFLKDFSYNREDFAKAGLQVEFINPIFEFSRAMNELQLNDAEFALLIAISIFSADRPNVQDQLQVERLQHTYVEALHAYVSIHHPHDRLMFPRMLMKLVSLRTLSSVHSEQVFALRLQDKKLPPLLSEIWDVHE
Fraction of protein solublized by SUMO fusion (E. coli [2]; induced at 20° C.): about 40%
Solubility of fusion protein (E. coli [2]; induced at 37° C.): hardly any SUMO-LXR was soluble

B5: SUMO kinase: MAPKAP2 kinase expressed as a SUMO-fusion in E. coli (SEQ ID NO: 29) (protein)
chain: MGHHHHHHGSDSEVNQEAKPEVKPEVKPETHINLKVSDGSSEIFFKIKKTTPLRRLMEAFAKRQGKEMDSLRFLYDGIRIQADQTPEDLDMEDNDIIEAHREQIGGMQFHVKSGLQIKKNAIIDDYKVTSQVLGLGINGKVLQIFNKRTQEKFALKMLQDCPKARREVELHWRASQCPHIVRIVDVYENLYAGRKCLLIVMECLDGGELFSRIQDRGDQAFTEREASEIMKSIGEAIQYLHSINIAHRDVKPENLLYTSKRPNAILKLTDFGFAKETTSHNSLTTPCYTPYYVAPEVLGPEKYDKSCDMWSLGVIMYILLCGYPPFYSNHGLAISPGMKTRIRMGQYEFPNPEWSEVSEEVKMLIRNLLKTEPTQRMTITEFMNHPWIMQSTKVPQTPLHTSRVLKEDKERWEDVKEEMTSALATMRVDYEQIK
In vitro cleavage by Ulp1 / SUMO hydrolase (SUMO hydrolase Ulp1): efficiently cleaved
Soluble form as fusion to SUMO (E. coli [2]; as summarised in Example III for FIG. 8): 95%
Soluble fraction of fusion protein (E. coli [2]; induced at 20° C. with 0.25 mM IPTG): 90%
Insoluble fraction of fusion protein (E. coli [2]; induction at 37° C.): more than 50%
